Experimental data: IntAct's records for PubMed 31515488

B1: E3 ubiquitin-protein ligase TRIM39 (Homo sapiens), Q9HCM9 (parent)
chain: MAETSLLEAGASAASTAAALENLQVEASCSVCLEYLKEPVIIECGHNFCKACITRWWEDLERDFPCPVCRKTSRYRSLRPNRQLGSMVEIAKQLQAVKRKIRDESLCPQHHEALSLFCYEDQEAVCLICAISHTHRAHTVVPLDDATQEYKEKLQKCLEPLEQKLQEITRCKSSEEKKPGELKRLVESRRQQILREFEELHRRLDEEQQVLLSRLEEEEQDILQRLRENAAHLGDKRRDLAHLAAEVEGKCLQSGFEMLKDVKSTLEKNIPRKFGGSLSTICPRDHKALLGLVKEINRCEKVKTMEVTSVSIELEKNFSNFPRQYFALRKILKQLIADVTLDPETAHPNLVLSEDRKSVKFVETRLRDLPDTPRRFTFYPCVLATEGFTSGRHYWEVEVGDKTHWAVGVCRDSVSRKGELTPLPETGYWRVRLWNGDKYAATTTPFTPLHIKVKPKRVGIFLDYEAGTLSFYNVTDRSHIYTFTDTFTEKLWPLFYPGIRAGRKNAAPLTIRPPTDWE
B2: Tektin-3 (Homo sapiens), Q9BXF9 (parent)
chain: MERVGCTLTTTYAHPRPTPTNFLPAISTMASSYRDRFPHSNLTHSLSLPWRPSTYYKVASNSPSVAPYCTRSQRVSENTMLPFVSNRTTFFTRYTPDDWYRSNLTNYQESNTSRHNSEKLRVDTSRLIQDKYQQTRKTQADTTQNLGERVNDIGFWKSEIIHELDEMIGETNALTDVKKRLERALMETEAPLQVARECLFHREKRMGIDLVHDEVEAQLLTEVDTILCCQERMKLHLDKAIAQLAANRASQHELEKDLSDKQTAYRIDDKCHHLRNTSDGVGYFRGVERVDATVSVPESWAKFTDDNILRSQSERAASAKLRDDIENLLVVTANEMWNQFNKVNLSFTNRIAETADAKNKIQTHLAKTLQEIFQTEMTIESIKKAIKDKTAFLKVAQTRLDERTRRPNIELCRDMAQLRLVNEVHEVDDTIQTLQQRLRDAEDTLQSLVHIKATLEYDLAVKANSLYIDQEKCMSMRKSYPNTLRLVGFC
partner: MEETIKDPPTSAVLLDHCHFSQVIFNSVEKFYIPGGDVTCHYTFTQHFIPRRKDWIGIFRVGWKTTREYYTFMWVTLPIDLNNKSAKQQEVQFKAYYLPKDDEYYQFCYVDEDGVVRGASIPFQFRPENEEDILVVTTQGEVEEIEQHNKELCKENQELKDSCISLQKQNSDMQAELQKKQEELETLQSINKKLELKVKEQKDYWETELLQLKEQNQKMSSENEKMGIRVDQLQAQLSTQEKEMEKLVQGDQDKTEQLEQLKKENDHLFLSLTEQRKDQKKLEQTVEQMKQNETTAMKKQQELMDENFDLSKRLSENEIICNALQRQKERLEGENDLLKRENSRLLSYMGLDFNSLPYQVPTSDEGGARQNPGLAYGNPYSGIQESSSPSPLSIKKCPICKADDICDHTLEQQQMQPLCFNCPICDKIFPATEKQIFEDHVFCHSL
B3: Transmembrane protein 79 (Homo sapiens), Q9BSE2 (parent)
chain: MTEQETLALLEVKRSDSPEKSSPQALVPNGRQPEGEGGAESPGAESLRVGSSAGSPTAIEGAEDGLDSTVSEAATLPWGTGPQPSAPFPDPPGWRDIEPEPPESEPLTKLEELPEDDANLLPEKAARAFVPIDLQCIERQPQEDLIVRCEAGEGECRTFMPPRVTHPDPTERKWAEAVVRPPGCSCGGCGSCGDREWLRAVASVGAALILFPCLLYGAYAFLPFDVPRLPTMSSRLIYTLRCGVFATFPIVLGILVYGLSLLCFSALRPFGEPRREVEIHRRYVAQSVQLFILYFFNLAVLSTYLPQDTLKLLPLLTGLFAVSRLIYWLTFAVGRSFRGFGYGLTFLPLLSMLMWNLYYMFVVEPERMLTATESRLDYPDHARSASDYRPRPWG
partner: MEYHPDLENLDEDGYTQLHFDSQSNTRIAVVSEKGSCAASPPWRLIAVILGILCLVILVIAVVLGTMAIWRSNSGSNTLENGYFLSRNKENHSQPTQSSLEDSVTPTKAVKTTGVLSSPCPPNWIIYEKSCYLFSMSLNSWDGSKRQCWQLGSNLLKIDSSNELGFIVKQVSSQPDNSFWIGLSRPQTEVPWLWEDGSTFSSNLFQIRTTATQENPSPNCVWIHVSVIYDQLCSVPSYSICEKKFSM
B4: Keratin, type I cytoskeletal 18 (Homo sapiens), P05783 (parent)
chain: MSFTTRSTFSTNYRSLGSVQAPSYGARPVSSAASVYAGAGGSGSRISVSRSTSFRGGMGSGGLATGIAGGLAGMGGIQNEKETMQSLNDRLASYLDRVRSLETENRRLESKIREHLEKKGPQVRDWSHYFKIIEDLRAQIFANTVDNARIVLQIDNARLAADDFRVKYETELAMRQSVENDIHGLRKVIDDTNITRLQLETEIEALKEELLFMKKNHEEEVKGLQAQIASSGLTVEVDAPKSQDLAKIMADIRAQYDELARKNREELDKYWSQQIEESTTVVTTQSAEVGAAETTLTELRRTVQSLEIDLDSMRNLKASLENSLREVEARYALQMEQLNGILLHLESELAQTRAEGQRQAQEYEALLNIKVKLEAEIATYRRLLEDGEDFNLGDALDSSNSMQTIQKTTTRRIVDGKVVSETNDTKVLRH
partner: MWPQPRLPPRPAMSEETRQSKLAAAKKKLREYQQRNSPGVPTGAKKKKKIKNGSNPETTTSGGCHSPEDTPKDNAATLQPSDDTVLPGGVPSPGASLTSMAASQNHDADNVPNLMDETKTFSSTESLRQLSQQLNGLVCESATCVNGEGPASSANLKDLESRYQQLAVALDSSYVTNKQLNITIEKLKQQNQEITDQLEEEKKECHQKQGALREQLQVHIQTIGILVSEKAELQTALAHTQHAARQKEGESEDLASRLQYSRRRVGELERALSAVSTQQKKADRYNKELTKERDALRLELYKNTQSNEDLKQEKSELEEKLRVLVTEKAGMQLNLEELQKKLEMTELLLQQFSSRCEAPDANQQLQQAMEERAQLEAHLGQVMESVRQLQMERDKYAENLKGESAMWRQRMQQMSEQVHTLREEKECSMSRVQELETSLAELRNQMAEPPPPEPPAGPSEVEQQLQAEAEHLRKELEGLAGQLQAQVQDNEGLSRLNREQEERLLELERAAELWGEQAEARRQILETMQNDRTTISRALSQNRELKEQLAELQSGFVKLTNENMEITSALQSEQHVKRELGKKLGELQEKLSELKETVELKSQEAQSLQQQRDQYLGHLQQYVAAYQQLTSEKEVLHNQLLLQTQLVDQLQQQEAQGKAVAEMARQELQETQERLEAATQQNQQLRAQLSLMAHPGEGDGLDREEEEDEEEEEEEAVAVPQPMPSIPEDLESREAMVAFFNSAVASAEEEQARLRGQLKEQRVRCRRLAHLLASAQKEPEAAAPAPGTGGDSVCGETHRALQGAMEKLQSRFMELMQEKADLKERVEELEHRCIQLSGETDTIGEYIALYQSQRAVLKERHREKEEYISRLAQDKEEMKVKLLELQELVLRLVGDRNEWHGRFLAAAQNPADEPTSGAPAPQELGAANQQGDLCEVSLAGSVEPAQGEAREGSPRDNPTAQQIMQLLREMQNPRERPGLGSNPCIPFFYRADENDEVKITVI
B5: Golgin-45 (Homo sapiens), Q9H2G9 (parent)
chain: MTTKNLETKVTVTSSPIRGAGDGMETEEPPKSVEVTSGVQSRKHHSLQSPWKKAVPSESPGVLQLGKMLTEKAMEVKAVRILVPKAAITHDIPNKNTKVKSLGHHKGEFLGQSEGVIEPNKELSEVKNVLEKLKNSERRLLQDKEGLSNQLRVQTEVNRELKKLLVASVGDDLQYHFERLAREKNQLILENEALGRNTAQLSEQLERMSIQCDVWRSKFLASRVMADELTNSRAALQRQNRDAHGAIQDLLSEREQFRQEMIATQKLLEELLVSLQWGREQTYSPSVQPHSTAELALTNHKLAKAVNSHLLGNVGINNQKKIPSTVEFCSTPAEKMAETVLRILDPVTCKESSPDNPFFESSPTTLLATKKNIGRFHPYTRYENITFNCCNHCRGELIAL
B6: Microtubule-associated tumor suppressor candidate 2 (Homo sapiens), Q5JR59-3 (parent)
chain: MGHCCCKPYNCLQCLDKTNESALVKEKELSIELANIRDEVAFHTAKCEKLQKEKEELERRFEDEVKRLGWQQQAELQELEERLQLQFEAEMARLQEEHGDQLLSIRCQHQEQVEDLTASHDAALLEMENNHTVAITILQDDHDHKVQELMSTHELEKKELEENFEKLRLSLQDQVDTLTFQSQSLRDRARRFEEALRKNTEEQLEIALAPYQHLEEDMKSLKQVLEMKNQQIHEQEKKILELEKLAEKNIILEEKIQVLQQQNEDLKARIDQNTVVTRQLSEENANLQEYVEKETQEKKRLSRTNEELLWKLQTGDPTSPIKLSPTSPVYRGSSSGPSSPARVSTTPR

Variants of: B1
Conditions: with znf26_human ZNF26, P17031
Chain of znf26_human ZNF26, P17031 (P17031 whole entry): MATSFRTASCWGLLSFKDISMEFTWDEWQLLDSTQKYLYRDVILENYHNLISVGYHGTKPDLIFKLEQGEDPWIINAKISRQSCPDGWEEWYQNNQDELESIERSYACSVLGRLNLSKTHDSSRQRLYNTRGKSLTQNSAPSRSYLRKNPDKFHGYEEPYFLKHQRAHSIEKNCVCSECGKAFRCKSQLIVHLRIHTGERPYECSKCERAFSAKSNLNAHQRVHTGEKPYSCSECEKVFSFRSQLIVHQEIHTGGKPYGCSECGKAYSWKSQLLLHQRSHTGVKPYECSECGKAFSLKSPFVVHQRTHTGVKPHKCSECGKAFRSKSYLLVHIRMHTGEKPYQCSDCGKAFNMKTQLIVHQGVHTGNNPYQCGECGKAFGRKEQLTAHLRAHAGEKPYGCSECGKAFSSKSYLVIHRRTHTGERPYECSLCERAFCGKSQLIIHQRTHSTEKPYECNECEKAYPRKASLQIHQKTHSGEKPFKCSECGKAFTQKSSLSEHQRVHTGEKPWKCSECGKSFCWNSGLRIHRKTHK

| effect of a mutation on the interaction | Variant |
| --- | --- |
| disrupting interaction strength | L194S |

Variants of: B1
Conditions: with ccnc_human CCNC

| effect of a mutation on the interaction | Variant |
| --- | --- |
| disrupting interaction strength | L194S |

Variants of: B1
Conditions: with if4a2_human EIF4A2, Q14240

| effect of a mutation on the interaction | Variant |
| --- | --- |
| disrupting interaction strength | L194S |

Variants of: B1
Conditions: with ub2e2_human UBE2E2, Q96LR5
Chain of ub2e2_human UBE2E2, Q96LR5 (Q96LR5 whole entry): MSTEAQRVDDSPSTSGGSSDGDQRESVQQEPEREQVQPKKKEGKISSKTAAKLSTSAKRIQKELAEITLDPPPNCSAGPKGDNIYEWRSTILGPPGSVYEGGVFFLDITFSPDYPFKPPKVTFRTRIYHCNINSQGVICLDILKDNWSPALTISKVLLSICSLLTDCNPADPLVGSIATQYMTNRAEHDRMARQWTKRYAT

| effect of a mutation on the interaction | Variant |
| --- | --- |
| disrupting interaction strength | L194S |

Variants of: B1
Conditions: with ub2d3_human UBE2D3, P61077
Chain of ub2d3_human UBE2D3, P61077 (P61077 whole entry): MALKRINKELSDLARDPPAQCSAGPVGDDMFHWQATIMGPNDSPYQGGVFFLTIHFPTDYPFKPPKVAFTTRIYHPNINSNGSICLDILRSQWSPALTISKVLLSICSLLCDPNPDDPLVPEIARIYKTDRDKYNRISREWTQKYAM

| effect of a mutation on the interaction | Variant |
| --- | --- |
| disrupting interaction strength | L194S |

Variants of: B2
Conditions: with caco2_human CALCOCO2, Q13137

| effect of a mutation on the interaction | Variant |
| --- | --- |
| with no effect | R196Q |
| with no effect | G282A |
| with no effect | Q129K |

Variants of: B3
Conditions: with clc7a_human CLEC7A

| effect of a mutation on the interaction | Variant |
| --- | --- |
| with no effect | V322I |

Variants of: B4
Conditions: with goga2_human GOLGA2, Q08379

| effect of a mutation on the interaction | Variant |
| --- | --- |
| with no effect | R158H |
| with no effect | S230T |

Variants of: B5
Conditions: with aakb2_human PRKAB2, O43741
Chain of aakb2_human PRKAB2, O43741 (O43741 whole entry): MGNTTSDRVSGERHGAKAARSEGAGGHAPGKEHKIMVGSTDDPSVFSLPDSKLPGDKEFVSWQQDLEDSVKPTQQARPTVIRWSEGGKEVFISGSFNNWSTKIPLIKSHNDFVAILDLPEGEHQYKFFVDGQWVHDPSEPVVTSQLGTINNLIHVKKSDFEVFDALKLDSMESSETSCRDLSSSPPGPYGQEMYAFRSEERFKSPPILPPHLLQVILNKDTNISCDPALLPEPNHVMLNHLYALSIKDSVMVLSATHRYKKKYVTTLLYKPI

| effect of a mutation on the interaction | Variant |
| --- | --- |
| with no effect | H45R |
| with no effect | Q40R |

Variants of: B5
Conditions: with rab2a_human RAB2A

| effect of a mutation on the interaction | Variant |
| --- | --- |
| with no effect | H45R |
| with no effect | Q40R |

Variants of: B5
Conditions: with zbt24_human ZBTB24, O43167
Chain of zbt24_human ZBTB24, O43167 (O43167 whole entry): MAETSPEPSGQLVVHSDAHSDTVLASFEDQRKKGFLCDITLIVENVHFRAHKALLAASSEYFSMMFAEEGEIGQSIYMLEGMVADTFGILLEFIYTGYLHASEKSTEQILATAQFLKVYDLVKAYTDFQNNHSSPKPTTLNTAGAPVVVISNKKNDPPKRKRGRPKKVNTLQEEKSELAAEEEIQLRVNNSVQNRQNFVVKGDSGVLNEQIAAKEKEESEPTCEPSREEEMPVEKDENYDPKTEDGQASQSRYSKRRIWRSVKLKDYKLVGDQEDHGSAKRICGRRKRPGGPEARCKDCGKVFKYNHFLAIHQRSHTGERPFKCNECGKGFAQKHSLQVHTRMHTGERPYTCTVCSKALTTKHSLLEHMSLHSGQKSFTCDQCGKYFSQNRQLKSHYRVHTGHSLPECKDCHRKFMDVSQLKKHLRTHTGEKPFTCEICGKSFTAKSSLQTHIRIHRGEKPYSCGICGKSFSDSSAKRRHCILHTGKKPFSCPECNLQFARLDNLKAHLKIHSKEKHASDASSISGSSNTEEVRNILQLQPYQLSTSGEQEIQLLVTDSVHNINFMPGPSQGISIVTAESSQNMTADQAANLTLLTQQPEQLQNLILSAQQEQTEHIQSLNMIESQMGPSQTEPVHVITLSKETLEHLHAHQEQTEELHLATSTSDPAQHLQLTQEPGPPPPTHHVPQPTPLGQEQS

| effect of a mutation on the interaction | Variant |
| --- | --- |
| with no effect | H45R |
| with no effect | Q40R |

Variants of: B6
Conditions: with catz_human CTSZ

| effect of a mutation on the interaction | Variant |
| --- | --- |
| with no effect | A89V |

Variants of: B6
Conditions: with zn136_human ZNF136, P52737

| effect of a mutation on the interaction | Variant |
| --- | --- |
| with no effect | A89V |

Variants of: B6
Conditions: with TSGA10IP

| effect of a mutation on the interaction | Variant |
| --- | --- |
| with no effect | A89V |

Variants of: B6
Conditions: with kat5_human KAT5, Q92993
Chain of kat5_human KAT5, Q92993 (Q92993 whole entry, looked up): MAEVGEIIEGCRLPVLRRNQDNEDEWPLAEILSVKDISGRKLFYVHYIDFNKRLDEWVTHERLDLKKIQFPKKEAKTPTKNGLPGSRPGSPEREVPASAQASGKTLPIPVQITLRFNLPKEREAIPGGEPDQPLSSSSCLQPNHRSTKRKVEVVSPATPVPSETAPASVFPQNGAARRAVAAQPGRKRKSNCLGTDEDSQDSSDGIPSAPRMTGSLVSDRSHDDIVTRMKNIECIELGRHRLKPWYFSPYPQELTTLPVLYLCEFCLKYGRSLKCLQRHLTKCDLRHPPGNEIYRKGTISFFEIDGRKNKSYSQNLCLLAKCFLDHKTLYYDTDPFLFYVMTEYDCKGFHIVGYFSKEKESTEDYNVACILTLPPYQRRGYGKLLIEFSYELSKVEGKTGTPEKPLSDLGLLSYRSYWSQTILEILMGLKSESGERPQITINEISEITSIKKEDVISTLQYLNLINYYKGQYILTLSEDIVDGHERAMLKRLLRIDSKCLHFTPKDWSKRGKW

| effect of a mutation on the interaction | Variant |
| --- | --- |
| with no effect | A89V |

Variants of: B6
Conditions: with cd5r1_human CDK5R1, Q15078
Chain of cd5r1_human CDK5R1, Q15078 (Q15078 whole entry): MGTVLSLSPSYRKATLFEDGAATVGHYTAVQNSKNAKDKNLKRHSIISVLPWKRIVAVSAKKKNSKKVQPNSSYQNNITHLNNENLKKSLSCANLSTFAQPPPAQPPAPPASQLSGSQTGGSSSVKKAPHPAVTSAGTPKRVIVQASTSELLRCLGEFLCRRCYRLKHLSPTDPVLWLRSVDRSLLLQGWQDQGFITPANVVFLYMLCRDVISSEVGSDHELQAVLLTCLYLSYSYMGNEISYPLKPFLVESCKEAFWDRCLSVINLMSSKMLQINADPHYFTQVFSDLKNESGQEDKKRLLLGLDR

| effect of a mutation on the interaction | Variant |
| --- | --- |
| with no effect | A89V |

Variants of: B6
Conditions: with bmp7_human BMP7, P18075

| effect of a mutation on the interaction | Variant |
| --- | --- |
| with no effect | A89V |

Variants of: B6
Conditions: with gtpba_human GTPBP10, A4D1E9
Chain of gtpba_human GTPBP10, A4D1E9 (A4D1E9 whole entry): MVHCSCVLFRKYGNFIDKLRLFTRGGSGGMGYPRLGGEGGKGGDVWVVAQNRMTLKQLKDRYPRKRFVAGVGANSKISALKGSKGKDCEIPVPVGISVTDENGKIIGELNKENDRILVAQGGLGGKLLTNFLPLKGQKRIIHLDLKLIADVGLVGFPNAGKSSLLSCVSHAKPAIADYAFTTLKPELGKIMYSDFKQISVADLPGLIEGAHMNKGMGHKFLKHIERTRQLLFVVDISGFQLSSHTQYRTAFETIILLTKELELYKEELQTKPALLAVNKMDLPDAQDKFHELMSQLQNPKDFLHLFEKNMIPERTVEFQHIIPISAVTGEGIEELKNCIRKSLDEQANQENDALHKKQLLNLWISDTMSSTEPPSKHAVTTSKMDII

| effect of a mutation on the interaction | Variant |
| --- | --- |
| with no effect | A89V |

Variants of: B6
Conditions: with cdkl3_human CDKL3, Q8IVW4
Chain of cdkl3_human CDKL3, Q8IVW4 (Q8IVW4 whole entry, looked up): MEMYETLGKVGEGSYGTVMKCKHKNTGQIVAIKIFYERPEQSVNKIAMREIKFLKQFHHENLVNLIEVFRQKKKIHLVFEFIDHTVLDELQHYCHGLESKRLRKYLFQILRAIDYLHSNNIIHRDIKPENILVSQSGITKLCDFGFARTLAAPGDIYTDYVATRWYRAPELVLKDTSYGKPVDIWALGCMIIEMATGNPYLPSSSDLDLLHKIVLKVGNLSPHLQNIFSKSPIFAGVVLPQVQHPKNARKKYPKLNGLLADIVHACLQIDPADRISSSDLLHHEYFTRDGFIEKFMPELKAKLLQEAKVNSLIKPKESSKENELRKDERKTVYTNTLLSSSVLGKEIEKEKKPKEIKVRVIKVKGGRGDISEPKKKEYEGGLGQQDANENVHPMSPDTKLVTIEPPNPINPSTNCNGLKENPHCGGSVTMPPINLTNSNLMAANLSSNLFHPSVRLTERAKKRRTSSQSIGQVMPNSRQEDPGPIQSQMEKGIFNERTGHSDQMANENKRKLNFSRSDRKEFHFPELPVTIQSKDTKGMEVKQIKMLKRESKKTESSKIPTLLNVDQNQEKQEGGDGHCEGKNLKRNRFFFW

| effect of a mutation on the interaction | Variant |
| --- | --- |
| with no effect | A89V |

Variants of: B6
Conditions: with cu058_human C21orf58, P58505
Chain of cu058_human C21orf58, P58505 (P58505 whole entry): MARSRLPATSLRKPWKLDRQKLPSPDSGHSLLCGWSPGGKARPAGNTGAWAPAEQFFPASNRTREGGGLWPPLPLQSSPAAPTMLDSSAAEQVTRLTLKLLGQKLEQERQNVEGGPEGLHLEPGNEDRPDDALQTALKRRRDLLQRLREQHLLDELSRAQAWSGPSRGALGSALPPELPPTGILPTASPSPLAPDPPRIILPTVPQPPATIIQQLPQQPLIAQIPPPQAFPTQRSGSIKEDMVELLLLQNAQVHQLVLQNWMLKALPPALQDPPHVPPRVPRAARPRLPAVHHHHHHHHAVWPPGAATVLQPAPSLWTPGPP

| effect of a mutation on the interaction | Variant |
| --- | --- |
| with no effect | A89V |

Variants of: B6
Conditions: with zn426_human ZNF426, Q9BUY5

| effect of a mutation on the interaction | Variant |
| --- | --- |
| with no effect | A89V |

Variants of: B6
Conditions: with snai1_human SNAI1, O95863
Chain of snai1_human SNAI1, O95863 (O95863 whole entry): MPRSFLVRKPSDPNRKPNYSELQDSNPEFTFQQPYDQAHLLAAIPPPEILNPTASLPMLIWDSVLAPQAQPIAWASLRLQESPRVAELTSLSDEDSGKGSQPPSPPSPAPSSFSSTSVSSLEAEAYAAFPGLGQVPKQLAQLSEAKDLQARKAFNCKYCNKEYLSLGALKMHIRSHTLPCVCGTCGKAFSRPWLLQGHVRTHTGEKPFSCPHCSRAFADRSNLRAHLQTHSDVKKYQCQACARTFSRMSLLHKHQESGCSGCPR

| effect of a mutation on the interaction | Variant |
| --- | --- |
| with no effect | A89V |

Variants of: B6
Conditions: with zn329_human ZNF329, Q86UD4
Chain of zn329_human ZNF329, Q86UD4 (Q86UD4 whole entry): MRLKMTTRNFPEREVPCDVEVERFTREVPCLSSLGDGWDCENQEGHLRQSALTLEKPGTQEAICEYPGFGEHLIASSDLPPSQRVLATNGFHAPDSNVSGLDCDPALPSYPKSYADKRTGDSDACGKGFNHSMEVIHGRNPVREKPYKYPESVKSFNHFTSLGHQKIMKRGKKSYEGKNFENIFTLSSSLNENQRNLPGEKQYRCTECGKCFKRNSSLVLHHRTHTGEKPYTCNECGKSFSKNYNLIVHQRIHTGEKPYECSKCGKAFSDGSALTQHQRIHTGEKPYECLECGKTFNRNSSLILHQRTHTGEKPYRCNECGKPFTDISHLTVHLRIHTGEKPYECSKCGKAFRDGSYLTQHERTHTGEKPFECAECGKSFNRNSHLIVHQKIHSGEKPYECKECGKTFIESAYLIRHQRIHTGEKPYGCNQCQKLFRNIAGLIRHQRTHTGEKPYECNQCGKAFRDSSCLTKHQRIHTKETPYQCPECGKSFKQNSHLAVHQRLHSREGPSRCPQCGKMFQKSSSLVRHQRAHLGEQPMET

| effect of a mutation on the interaction | Variant |
| --- | --- |
| with no effect | A89V |
